Data published in FireProtDB (doi:10.1021/bi00210a045).

Conditions: Escherichia coli (strain K12), Thermal, DSC, reversible: yes, whole UniProt chain shown
[1] = pH 2.5, 25 °C, glycine or acetate 5 mM or 10 mM
[2] = pH 10.3, 25 °C, glycine or CAPS 5 mM or 10 mM
[3] = pH 10.3, Sodium glycinate 50 mM

B1: Chemotaxis protein CheY wild type, P0AE67 (protein)
chain: MADKELKFLVVDDFSTMRRIVRNLLKELGFNNVEEAEDGVDALNKLQAGGYGFVISDWNMPNMDGLELLKTIRADGAMSALPVLMVTAEAKKENIIAAAQAGASGYVVKPFTAATLEEKLNKIFEKLGM
[1]
  heat capacity change of unfolding: 0.89 kcal/mol/K
  unfolding free energy: 2.89 kcal/mol
pH 7, Sodium phosphate 50 mM
  Tm: 58 °C
  heat capacity change of unfolding: 0.69 kcal/mol/K
  unfolding enthalpy (calorimetric): 83.7 kcal/mol
[2]
  heat capacity change of unfolding: 0.84 kcal/mol/K
  unfolding free energy: 4.9 kcal/mol
[3]
  Tm: 55 °C
  heat capacity change of unfolding: 0.84 kcal/mol/K
  unfolding enthalpy (calorimetric): 67 kcal/mol
